Experimental data as given in the supplement of paper PMC10065799, “High-throughput profiling of sequence recognition by tyrosine kinases and SH2 domains using bacterial peptide display” (eLife, 2023).

Experiments:
EPHB2 = EPHB2 (UniProt P29323); assay: phosphorylation enrichment, bacterial display (enrichment ratio); higher = better substrate or ligand; peptides without Tyr show the background
AncSZ = assay: as above
Fer (mouse) = assay: as above
Hck = Hck (UniProt P08631); assay: as above
Fes = Fes (UniProt P07332); assay: as above
Fes, sequence (P07332 whole entry, looked up): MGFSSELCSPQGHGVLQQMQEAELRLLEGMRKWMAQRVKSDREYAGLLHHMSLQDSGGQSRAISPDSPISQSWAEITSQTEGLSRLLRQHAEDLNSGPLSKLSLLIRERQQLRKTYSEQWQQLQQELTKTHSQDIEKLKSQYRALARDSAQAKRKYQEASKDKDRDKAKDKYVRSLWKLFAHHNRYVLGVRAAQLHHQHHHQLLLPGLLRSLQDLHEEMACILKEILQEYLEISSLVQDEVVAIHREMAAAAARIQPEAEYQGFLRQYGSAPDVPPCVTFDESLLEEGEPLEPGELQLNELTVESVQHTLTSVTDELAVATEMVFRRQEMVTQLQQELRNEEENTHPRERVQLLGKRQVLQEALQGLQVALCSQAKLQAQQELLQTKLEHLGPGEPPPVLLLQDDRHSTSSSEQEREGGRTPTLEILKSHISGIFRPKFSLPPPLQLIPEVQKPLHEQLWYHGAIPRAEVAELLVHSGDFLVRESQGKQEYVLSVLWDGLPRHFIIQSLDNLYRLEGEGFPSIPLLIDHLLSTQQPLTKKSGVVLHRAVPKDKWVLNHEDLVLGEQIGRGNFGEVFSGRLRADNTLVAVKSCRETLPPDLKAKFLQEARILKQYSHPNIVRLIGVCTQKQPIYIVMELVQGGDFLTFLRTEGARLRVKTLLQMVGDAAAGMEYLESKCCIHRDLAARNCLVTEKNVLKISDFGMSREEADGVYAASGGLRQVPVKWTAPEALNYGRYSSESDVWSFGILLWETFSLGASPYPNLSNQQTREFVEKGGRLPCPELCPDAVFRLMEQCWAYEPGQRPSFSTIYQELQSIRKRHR

c-Src = assay: as above
EPHB1 = EPHB1 (UniProt P54762); assay: as above
EPHB1, sequence (P54762 whole entry, looked up): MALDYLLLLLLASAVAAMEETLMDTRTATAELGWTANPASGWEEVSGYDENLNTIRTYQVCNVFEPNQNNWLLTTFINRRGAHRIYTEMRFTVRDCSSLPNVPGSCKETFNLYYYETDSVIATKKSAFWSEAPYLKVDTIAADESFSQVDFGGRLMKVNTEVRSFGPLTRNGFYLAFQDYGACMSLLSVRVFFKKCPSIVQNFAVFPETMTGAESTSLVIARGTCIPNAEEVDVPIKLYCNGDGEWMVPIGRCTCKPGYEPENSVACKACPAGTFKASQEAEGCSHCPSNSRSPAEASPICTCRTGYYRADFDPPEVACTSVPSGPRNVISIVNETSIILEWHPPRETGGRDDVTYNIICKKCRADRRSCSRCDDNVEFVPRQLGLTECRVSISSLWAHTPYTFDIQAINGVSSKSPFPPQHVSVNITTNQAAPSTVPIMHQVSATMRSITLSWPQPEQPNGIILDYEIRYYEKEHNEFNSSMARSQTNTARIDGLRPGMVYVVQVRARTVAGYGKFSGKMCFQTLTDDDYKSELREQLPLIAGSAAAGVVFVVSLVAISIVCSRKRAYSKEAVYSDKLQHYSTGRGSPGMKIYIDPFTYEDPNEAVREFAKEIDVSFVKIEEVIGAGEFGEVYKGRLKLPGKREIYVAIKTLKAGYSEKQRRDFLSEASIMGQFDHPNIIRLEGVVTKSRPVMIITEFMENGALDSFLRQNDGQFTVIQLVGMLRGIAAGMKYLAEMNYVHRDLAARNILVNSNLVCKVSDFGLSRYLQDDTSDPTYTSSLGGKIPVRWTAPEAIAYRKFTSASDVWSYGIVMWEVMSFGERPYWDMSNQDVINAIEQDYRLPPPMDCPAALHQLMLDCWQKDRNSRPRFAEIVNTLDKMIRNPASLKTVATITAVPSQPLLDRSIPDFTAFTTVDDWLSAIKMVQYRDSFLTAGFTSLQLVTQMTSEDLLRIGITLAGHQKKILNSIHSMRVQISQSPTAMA

c-Abl (mouse) = assay: as above
Fyn = Fyn (UniProt P06241); assay: as above
Fyn, sequence (P06241 whole entry, looked up): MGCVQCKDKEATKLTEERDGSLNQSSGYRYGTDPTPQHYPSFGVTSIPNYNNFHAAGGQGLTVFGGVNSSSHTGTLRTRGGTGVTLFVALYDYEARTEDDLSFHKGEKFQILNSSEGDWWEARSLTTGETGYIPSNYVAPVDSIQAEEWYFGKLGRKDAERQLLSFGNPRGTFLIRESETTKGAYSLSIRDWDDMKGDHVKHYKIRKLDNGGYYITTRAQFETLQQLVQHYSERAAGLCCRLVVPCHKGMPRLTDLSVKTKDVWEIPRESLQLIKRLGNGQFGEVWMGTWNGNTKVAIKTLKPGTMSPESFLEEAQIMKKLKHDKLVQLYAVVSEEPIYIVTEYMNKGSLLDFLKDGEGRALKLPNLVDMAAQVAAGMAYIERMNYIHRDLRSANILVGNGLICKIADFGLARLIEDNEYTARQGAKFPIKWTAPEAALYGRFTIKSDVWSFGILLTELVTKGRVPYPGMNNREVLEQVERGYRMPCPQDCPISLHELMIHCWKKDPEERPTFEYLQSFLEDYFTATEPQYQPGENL

MERTK = MERTK (UniProt Q12866); assay: as above
FGFR3 = FGFR3 (UniProt P22607); assay: as above
FGFR3, sequence (P22607 whole entry, looked up): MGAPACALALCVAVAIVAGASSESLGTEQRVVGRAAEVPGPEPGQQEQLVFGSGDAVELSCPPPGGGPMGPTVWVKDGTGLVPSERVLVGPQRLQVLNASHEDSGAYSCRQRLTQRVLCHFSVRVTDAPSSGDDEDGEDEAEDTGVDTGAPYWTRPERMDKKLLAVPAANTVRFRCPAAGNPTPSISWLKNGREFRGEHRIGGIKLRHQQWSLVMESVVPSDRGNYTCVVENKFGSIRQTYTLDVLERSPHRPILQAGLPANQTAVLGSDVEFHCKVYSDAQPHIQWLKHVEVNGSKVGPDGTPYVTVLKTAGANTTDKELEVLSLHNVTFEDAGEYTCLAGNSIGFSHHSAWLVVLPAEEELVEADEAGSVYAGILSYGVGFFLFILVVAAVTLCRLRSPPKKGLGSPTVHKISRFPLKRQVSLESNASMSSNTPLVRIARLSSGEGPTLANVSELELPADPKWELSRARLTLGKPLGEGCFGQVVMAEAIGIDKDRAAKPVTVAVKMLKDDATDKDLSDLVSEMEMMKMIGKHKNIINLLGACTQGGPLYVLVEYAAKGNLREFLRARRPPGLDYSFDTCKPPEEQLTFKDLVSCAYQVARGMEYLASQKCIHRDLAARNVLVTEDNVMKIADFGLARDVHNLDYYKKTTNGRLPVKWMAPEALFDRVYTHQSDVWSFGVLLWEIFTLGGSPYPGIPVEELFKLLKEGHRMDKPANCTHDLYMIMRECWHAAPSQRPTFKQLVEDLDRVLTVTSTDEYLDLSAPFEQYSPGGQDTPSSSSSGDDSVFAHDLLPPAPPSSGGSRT

Jak2 = Jak2 (UniProt O60674); assay: as above
FGFR1 = FGFR1 (UniProt P11362); assay: as above
c-Src SH2 = assay: SH2 binding enrichment of the phosphorylated peptide, bacterial display (enrichment ratio); higher = better substrate or ligand; peptides without Tyr show the background
Grb2 SH2 = Grb2 SH2 (UniProt P62993); assay: as above
Grb2 SH2, sequence (P62993 whole entry, looked up): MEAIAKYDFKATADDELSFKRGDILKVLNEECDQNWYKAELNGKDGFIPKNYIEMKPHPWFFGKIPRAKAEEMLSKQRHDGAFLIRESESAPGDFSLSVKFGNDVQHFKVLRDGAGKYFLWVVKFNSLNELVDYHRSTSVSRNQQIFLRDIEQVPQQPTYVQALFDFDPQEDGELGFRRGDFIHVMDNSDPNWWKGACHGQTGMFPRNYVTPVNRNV

SHP2-C SH2 = assay: as above
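Throughout, for SH2 binding enrichment of the phosphorylated peptide, bacterial display: peptide library displayed on the E. coli surface as eCPX fusions, selected cells deep-sequenced, score is each peptide's frequency after selection divided by its frequency in the input.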
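Throughout, for phosphorylation enrichment, bacterial display: 11-residue human phosphosite peptides and single-mutation variants displayed on the E. coli surface, counted by deep sequencing, each peptide's frequency after selection divided by its frequency in the unselected input library; frequency after pTyr selection over input frequency; kinase dosed for 20-30% of maximal phosphorylation in three min.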

EPHB2, sequence (P29323 whole entry, looked up): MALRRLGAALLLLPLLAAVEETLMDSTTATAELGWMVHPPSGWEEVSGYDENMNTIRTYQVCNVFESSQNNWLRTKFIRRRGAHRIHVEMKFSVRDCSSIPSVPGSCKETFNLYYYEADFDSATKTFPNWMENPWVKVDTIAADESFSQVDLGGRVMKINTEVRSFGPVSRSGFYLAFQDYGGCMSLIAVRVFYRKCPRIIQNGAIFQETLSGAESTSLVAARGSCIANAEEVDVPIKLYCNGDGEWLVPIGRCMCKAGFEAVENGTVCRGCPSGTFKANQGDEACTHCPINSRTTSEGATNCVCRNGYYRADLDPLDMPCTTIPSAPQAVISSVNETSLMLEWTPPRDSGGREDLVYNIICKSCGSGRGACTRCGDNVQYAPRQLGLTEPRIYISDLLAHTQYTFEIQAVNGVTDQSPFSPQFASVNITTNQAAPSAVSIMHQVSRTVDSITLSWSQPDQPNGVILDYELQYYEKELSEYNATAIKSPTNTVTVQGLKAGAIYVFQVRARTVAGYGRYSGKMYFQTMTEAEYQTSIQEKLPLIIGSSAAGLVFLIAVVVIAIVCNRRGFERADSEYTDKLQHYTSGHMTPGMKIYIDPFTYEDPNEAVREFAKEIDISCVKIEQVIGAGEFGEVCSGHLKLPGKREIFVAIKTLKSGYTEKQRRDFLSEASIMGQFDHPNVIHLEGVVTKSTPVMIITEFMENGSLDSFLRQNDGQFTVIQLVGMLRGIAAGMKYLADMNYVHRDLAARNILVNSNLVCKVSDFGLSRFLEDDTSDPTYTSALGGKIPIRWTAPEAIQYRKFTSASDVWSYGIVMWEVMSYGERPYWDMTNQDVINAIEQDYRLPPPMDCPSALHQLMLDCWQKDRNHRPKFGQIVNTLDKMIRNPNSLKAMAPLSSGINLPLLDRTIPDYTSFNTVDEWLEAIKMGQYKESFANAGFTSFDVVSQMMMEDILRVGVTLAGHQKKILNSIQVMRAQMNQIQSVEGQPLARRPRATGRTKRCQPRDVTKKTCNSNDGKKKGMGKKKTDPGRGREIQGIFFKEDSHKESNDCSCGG
Hck, sequence (P08631 whole entry, looked up): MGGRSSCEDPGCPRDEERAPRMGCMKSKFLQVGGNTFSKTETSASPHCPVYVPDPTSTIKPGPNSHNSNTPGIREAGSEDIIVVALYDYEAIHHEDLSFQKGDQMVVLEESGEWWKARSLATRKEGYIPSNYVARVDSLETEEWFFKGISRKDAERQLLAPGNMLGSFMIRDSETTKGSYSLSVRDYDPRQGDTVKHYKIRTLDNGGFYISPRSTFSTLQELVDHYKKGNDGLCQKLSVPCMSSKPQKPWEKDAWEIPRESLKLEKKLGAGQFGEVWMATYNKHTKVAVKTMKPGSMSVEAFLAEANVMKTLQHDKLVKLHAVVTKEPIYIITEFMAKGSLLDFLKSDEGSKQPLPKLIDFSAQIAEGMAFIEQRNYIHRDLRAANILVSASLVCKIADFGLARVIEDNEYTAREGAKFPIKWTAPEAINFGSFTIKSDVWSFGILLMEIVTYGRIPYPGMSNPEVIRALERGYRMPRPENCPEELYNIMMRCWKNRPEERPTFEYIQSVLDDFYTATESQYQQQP

| Sequence | phosphorylation enrichment (EPHB2) | phosphorylation enrichment (AncSZ) | phosphorylation enrichment (Fer (mouse)) | phosphorylation enrichment (Hck) | phosphorylation enrichment (Fes) | phosphorylation enrichment (c-Src) | phosphorylation enrichment (EPHB1) | phosphorylation enrichment (c-Abl (mouse)) | phosphorylation enrichment (Fyn) | phosphorylation enrichment (MERTK) | phosphorylation enrichment (FGFR3) | phosphorylation enrichment (Jak2) | phosphorylation enrichment (FGFR1) | SH2 binding enrichment (c-Src SH2) | SH2 binding enrichment (Grb2 SH2) | SH2 binding enrichment (SHP2-C SH2) |
| --- | --- | --- | --- | --- | --- | --- | --- | --- | --- | --- | --- | --- | --- | --- | --- | --- |
| KFLVGYEMLAQ [GALT_Y339_M336L] | 0.434 | 0.701 | 0.395 | 0.416 | 0.977 | 0.378 | 0.434 | 0.578 | 0.386 | 0.323 | 0.661 | 0.747 | 0.408 | 2.72 | 1.01 | 1.06 |
| KFRREYILSLE [GPC3_Y299_W296R_YF] | 0.586 | 0.786 | 0.442 | 0.474 | 0.772 | 0.5 | 0.551 | 0.601 | 0.518 | 0.455 | 0.466 | 0.61 | 0.518 | 0.594 | 0.86 | 0.708 |
| KGKLIYLLGDS [NXPE1_Y350] | 0.42 | 0.803 | 0.471 | 0.478 | 0.922 | 0.661 | 0.391 | 0.529 | 0.551 | 0.343 | 0.521 | 0.639 | 0.434 | 1.17 | 1.2 | 1.24 |
| KHMADYPDYKY [SOX11_Y113] | 0.471 | 0.642 | 0.42 | 0.401 | 0.616 | 0.4 | 0.458 | 0.404 | 0.407 | 0.322 | 0.632 | 0.442 | 0.453 | 0.519 | 0.844 | 0.847 |
| KIEGVYARDET [RPL35A_Y34] | 0.612 | 0.784 | 0.387 | 0.586 | 0.878 | 0.56 | 0.515 | 0.633 | 0.555 | 0.386 | 0.55 | 0.681 | 0.437 | 0.542 | 0.671 | 0.705 |
| KILAKYLLETS [NAMPT_Y175] | 0.412 | 0.66 | 0.411 | 0.368 | 0.664 | 0.395 | 0.431 | 0.571 | 0.35 | 0.385 | 0.421 | 0.645 | 0.353 | 0.513 | 0.766 | 0.614 |
| KILPEYLSNWT [AIFM1_Y347] | 0.513 | 0.995 | 0.424 | 0.481 | 0.915 | 0.503 | 0.428 | 0.677 | 0.463 | 0.509 | 0.673 | 0.983 | 0.543 | 0.691 | 1.03 | 0.873 |
| KKHIPYKEHKS [CSNK1G1_Y205_R206K] | 0.951 | 1.53 | 1.2 | 0.842 | 2.1 | 1.03 | 1.15 | 3.19 | 0.597 | 0.987 | 2.2 | 3.96 | 0.942 | 1.82 | 1.89 | 2.23 |
| KKKKQYKDKYL [CASK_Y708] | 0.393 | 0.614 | 0.587 | 0.548 | 0.534 | 0.728 | 0.53 | 0.837 | 0.454 | 0.631 | 0.471 | 0.475 | 0.506 | 0.275 | 0.872 | 0.244 |
| KKMKRYHVGKV [HARS2_Y151] | 0.313 | 0.466 | 0.293 | 0.341 | 0.514 | 0.45 | 0.492 | 0.482 | 0.349 | 0.43 | 0.486 | 0.554 | 0.298 | 1.12 | 1.14 | 1.36 |
| KLFFHYNPKLC [INSR_Y457] | 0.568 | 1.25 | 0.566 | 0.562 | 1.41 | 0.428 | 0.631 | 0.855 | 0.384 | 0.383 | 0.777 | 1.47 | 0.534 | 0.712 | 1.12 | 1.18 |
| KLGDVYVNVAF [PGK1_Y161_D164V] | 0.632 | 1.13 | 0.661 | 0.706 | 1.08 | 0.584 | 0.801 | 0.727 | 0.645 | 0.471 | 1.01 | 0.965 | 1.01 | 0.636 | 1.16 | 0.845 |
| KLIMEYLPFGS [JAK2_Y931_YF] | 0.571 | 0.868 | 0.456 | 0.424 | 1.09 | 0.558 | 0.49 | 0.734 | 0.401 | 0.372 | 0.595 | 0.965 | 0.468 | 0.714 | 1 | 0.788 |
| KLPFLYDDPFS [GPX2_Y127_P126L_YF] | 4.62 | 1.07 | 1.6 | 1.5 | 0.995 | 0.641 | 3.99 | 0.736 | 0.672 | 2.66 | 0.62 | 1.03 | 0.589 | 1.23 | 0.846 | 0.841 |
| KLPFPYDDPFS [GPX2_Y127_YF] | 0.773 | 1.05 | 0.772 | 0.663 | 1.11 | 0.831 | 0.587 | 1.16 | 0.545 | 0.525 | 0.755 | 0.9 | 0.63 | 3.9 | 1.12 | 0.761 |
| KNKNRSKNILP [PTPN11_Y279_Y279S] | 0.568 | 0.732 | 0.486 | 0.561 | 0.749 | 0.564 | 0.686 | 0.771 | 0.621 | 0.561 | 0.627 | 0.632 | 0.531 | 0.374 | 0.777 | 0.39 |
| KNKNRYKNILP [PTPN11_Y279] | 0.665 | 0.78 | 0.703 | 0.851 | 1.03 | 0.941 | 0.601 | 0.877 | 0.644 | 0.799 | 0.889 | 0.984 | 0.598 | 0.637 | 1.05 | 0.888 |

| Sequence | phosphorylation enrichment (EPHB2) | phosphorylation enrichment (AncSZ) | phosphorylation enrichment (Fer (mouse)) | phosphorylation enrichment (Hck) | phosphorylation enrichment (Fes) | phosphorylation enrichment (c-Src) | phosphorylation enrichment (EPHB1) | phosphorylation enrichment (c-Abl (mouse)) | phosphorylation enrichment (Fyn) | phosphorylation enrichment (MERTK) | phosphorylation enrichment (FGFR3) | phosphorylation enrichment (Jak2) | phosphorylation enrichment (FGFR1) | SH2 binding enrichment (c-Src SH2) | SH2 binding enrichment (Grb2 SH2) | SH2 binding enrichment (SHP2-C SH2) |
| --- | --- | --- | --- | --- | --- | --- | --- | --- | --- | --- | --- | --- | --- | --- | --- | --- |
| KPEKTYGLRKE [CEP43_Y267] | 0.409 | 0.595 | 0.395 | 0.503 | 0.766 | 0.43 | 0.433 | 0.782 | 0.46 | 0.441 | 0.614 | 0.683 | 0.344 | 0.823 | 1.1 | 0.999 |
| KPNMNYDKLSW [FLI1_Y332_R337W] | 0.893 | 0.751 | 0.555 | 0.661 | 0.741 | 0.446 | 0.644 | 0.41 | 0.486 | 0.481 | 0.59 | 0.746 | 0.428 | 10.2 | 0.967 | 1.5 |
| KPVEEYANCHL [TF_Y593] | 0.549 | 0.96 | 0.481 | 0.613 | 1.11 | 0.547 | 0.623 | 0.755 | 0.472 | 0.544 | 0.65 | 0.915 | 0.61 | 1.25 | 1.1 | 0.758 |
| KQLFAYKMLMA [TMC2_Y209_YF] | 0.594 | 0.858 | 0.445 | 0.566 | 0.926 | 0.439 | 0.562 | 0.711 | 0.475 | 0.386 | 0.677 | 0.773 | 0.548 | 1.01 | 1.25 | 1.07 |
| KRLAVYQAGAR [APOE_Y180] | 0.399 | 0.495 | 0.333 | 0.335 | 0.504 | 0.378 | 0.316 | 0.398 | 0.405 | 0.346 | 0.365 | 0.464 | 0.403 | 0.879 | 1.1 | 1.05 |
| KRLWDYGMSSS [F8_Y1728_E1723K] | 0.461 | 0.592 | 0.339 | 0.337 | 0.706 | 0.394 | 0.429 | 0.536 | 0.341 | 0.359 | 0.511 | 0.666 | 0.399 | 0.457 | 0.971 | 0.57 |
| KSDVMYTDWKK [ORM1_Y175_V174M] | 0.454 | 0.738 | 0.463 | 2.03 | 0.842 | 0.616 | 0.488 | 0.689 | 0.485 | 0.562 | 0.682 | 0.764 | 0.416 | 0.47 | 0.771 | 0.626 |
| KSEKVYTRHGV [FLOT1_Y56] | 0.339 | 0.502 | 0.417 | 0.346 | 0.527 | 0.34 | 0.354 | 0.401 | 0.254 | 0.427 | 0.341 | 0.444 | 0.439 | 0.579 | 0.866 | 0.824 |
| KSPDSYQKILL [ATM_Y1415] | 0.437 | 0.55 | 0.393 | 0.395 | 0.801 | 0.429 | 0.397 | 0.569 | 0.372 | 0.437 | 0.451 | 0.712 | 0.488 | 1.24 | 0.805 | 0.631 |
| KSSDVYVSFDC [SORL1_Y136_Y141C_YF] | 0.802 | 1.44 | 0.733 | 2.16 | 1.18 | 3.34 | 1.41 | 0.786 | 5.22 | 0.803 | 1.61 | 0.889 | 1.92 | 0.79 | 1.15 | 0.782 |
| KSVSQYLEMDK [CAGE1_Y438] | 0.406 | 0.748 | 0.424 | 0.391 | 0.803 | 0.406 | 0.422 | 1.05 | 0.414 | 0.38 | 0.537 | 0.907 | 0.46 | 1.9 | 0.873 | 0.528 |
| KTGNIYRTEFG [MRPL3_Y265_M261T_YF] | 0.377 | 0.585 | 0.35 | 0.435 | 0.542 | 0.349 | 0.422 | 0.457 | 0.437 | 0.413 | 0.491 | 0.468 | 0.517 | 0.547 | 1.15 | 0.871 |
| KTVQDYLEKFF [MMP8_Y36_YF] | 0.602 | 1.14 | 0.485 | 0.502 | 1.28 | 0.446 | 0.504 | 0.874 | 0.519 | 0.514 | 0.692 | 0.986 | 0.643 | 0.64 | 0.953 | 0.719 |
| KVDKEYEVGVR [GHR_Y226_R229G] | 0.48 | 0.752 | 0.398 | 0.452 | 0.796 | 0.414 | 0.434 | 0.658 | 0.401 | 0.41 | 0.493 | 0.553 | 0.472 | 0.534 | 0.851 | 0.764 |
| KVGNEYITKGQ [MYH7_Y410_V411I] | 0.414 | 0.593 | 0.315 | 0.399 | 0.682 | 0.403 | 0.358 | 0.564 | 0.376 | 0.356 | 0.443 | 0.561 | 0.444 | 0.43 | 0.896 | 0.495 |
| KVGNEYVTKGQ [MYH7_Y410] | 0.495 | 0.492 | 0.269 | 0.334 | 0.578 | 0.339 | 0.303 | 0.469 | 0.3 | 0.332 | 0.422 | 0.471 | 0.393 | 0.471 | 0.89 | 0.676 |
